Assay results: patent US20260070974A1 (NONA BIOSCIENCES SUZHOU, published 2026)
“And” between values parts separate entries of the source, which are not always exact repeats. Equal values may be shown once.

Tests used:
[1] = target: T1, human Siglec-15 on CHO-K1/human Siglec-15 cells (KYinno, Beijing) (human, UniProt Q6ZMC9 20-328); assay: flow cytometry on CHO-K1/human Siglec-15 cells
T1 sequence: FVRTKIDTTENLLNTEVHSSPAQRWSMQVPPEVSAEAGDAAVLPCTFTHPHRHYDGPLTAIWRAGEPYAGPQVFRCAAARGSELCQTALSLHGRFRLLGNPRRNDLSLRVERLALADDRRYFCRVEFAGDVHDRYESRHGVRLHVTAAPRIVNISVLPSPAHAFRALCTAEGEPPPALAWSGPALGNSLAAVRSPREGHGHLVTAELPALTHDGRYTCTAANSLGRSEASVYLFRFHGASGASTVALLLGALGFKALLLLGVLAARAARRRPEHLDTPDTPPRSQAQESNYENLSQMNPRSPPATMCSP

[2] = target: T2, human Siglec-2-his protein (Acrobiosystems, Cat CD2-H52H8) (human, UniProt P20273 20-687); assay: ELISA on coated human Siglec-2-his, antibody at 100 nM and 10 nM, goat anti-human IgG-HRP, OD450
T2 construct: Bought protein; not shown: his tag
T2 sequence (looked up): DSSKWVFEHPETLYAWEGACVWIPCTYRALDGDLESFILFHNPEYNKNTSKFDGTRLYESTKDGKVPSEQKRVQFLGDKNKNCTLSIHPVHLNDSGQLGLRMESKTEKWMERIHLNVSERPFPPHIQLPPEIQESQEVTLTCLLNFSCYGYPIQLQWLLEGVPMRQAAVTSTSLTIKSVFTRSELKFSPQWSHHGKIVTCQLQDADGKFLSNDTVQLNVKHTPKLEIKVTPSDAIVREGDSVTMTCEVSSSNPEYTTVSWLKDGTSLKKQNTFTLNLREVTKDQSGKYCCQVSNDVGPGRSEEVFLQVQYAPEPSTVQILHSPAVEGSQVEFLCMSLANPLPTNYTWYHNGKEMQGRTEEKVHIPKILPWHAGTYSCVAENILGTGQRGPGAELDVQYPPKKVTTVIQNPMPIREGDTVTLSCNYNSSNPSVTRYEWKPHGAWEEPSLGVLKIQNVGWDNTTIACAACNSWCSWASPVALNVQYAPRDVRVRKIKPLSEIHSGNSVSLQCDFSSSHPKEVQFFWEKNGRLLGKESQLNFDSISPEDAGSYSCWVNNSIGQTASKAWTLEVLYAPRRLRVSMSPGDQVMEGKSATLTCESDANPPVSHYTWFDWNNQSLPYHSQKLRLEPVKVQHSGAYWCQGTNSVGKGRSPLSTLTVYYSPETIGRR
Procedure: Human Siglec-15 ECD-his protein (Acrobiosystems, Cat SG5-H52H3), human Siglec-2-his protein (Acrobiosystems, Cat CD2-H52H8), human Siglec-4a-his protein (Acrobiosystems, Cat MAG-H52H8), human Siglec-3-his protein (Acrobiosystems, Cat CD3-H5226), human Siglec-10-his protein (Acrobiosystems, Cat SIO-H52H9), and human PD-L1/B7-H1-his protein (Acrobiosystems, Cat PD1-H5229), each at 1 μg/mL and dissolved in PBS, were each added to an ELISA plate at 100 μL/well for coating and the plate was incubated overnight at 4° C. The ELISA plate was then blocked with PBST (PBS+0.05% Tween 20) containing 2% BSA at 200 μL/well and incubated at 37° C. for 1 h. The ELISA plate was washed 4 times with PBST. The anti-Siglec-15 antibody diluted in a gradient (concentrations: 100 nM and 10 nM) was added to the ELISA plate at 100 μL/well and the plate was incubated at 37° C. for 1 h. The ELISA plate was washed 4 times with PBST. The goat anti-human IgG (H+L)-HRP (1:5000, Jackson, Cat 109-035-088) was added at 100 μL/well and the plate was incubated at 37° C. for 1 h. The ELISA plate was washed 4 times with PBST. The TMB substrate (Biopanda, Cat TMB-S-003) was added at 100 μL/well, and the plate was incubated at room temperature for 5 min, and then the stop buffer (Solarbio, Cat #: C1058) was added at 100 μL/well to stop the reaction.

B1: PR301286 (antibody, human IgG1, kappa, V domains shown)
VH: QVQLVESGGGVVQPGKSLRLSCAASGFTFSSYGMHWVRQAPGKGLEWVAVIWIDGSNRYYAASVKGRFTISRDNSKNTLYLQMNSLRAEDTAVYYCTRGYGDYAYVMDVWGQGASVTVSS
VL: DIVMTQSPLSLPVTPGEPASISCRSSQSLLPGNGYNYLDWYLQKPGQSPQLLIYLGSNRASGVPDRFSGSGSGTDFTLKISRVEAEDVGIYYCMQALQSPLTFGGGTKVEIKR
notes: Parent of the PTM variants PR301286-1, -3, -5, -6, -7
In the case of B1, the EC50 [1] is reported as 1.98 nM, the “Maximum (MFI)” value [1] is reported as 24200 MFI and the binding result [2] is reported as “no binding (tested: 100 nM)”.

B2: PR300066 (Tab) (antibody, human IgG1, kappa, V domains shown)
VH: QVQLQQPGAELVKPGASVKMSCKASGYTFTSYWITWVIQRPGQGLEWIGDIYCGSDTMHYNEKFKNKATLTVDTSSSTAYMQLSSLTSEDSAVYYCARWWDYGSSYDYFDYWGQGTTLTVSS
VL: DIKMTQSPSSMYASLGERVTITCKASQDINSYLSWFQQKPGKSPKTLIYRANRLVDGVPSRFSGSGSGQDYSLTISSLEYEDMGIYYCLQYDEFPYTFGGGTKLEIKR
notes: variable region from clone 5G12 of WO 2018/057735A1, on human IgG1/kappa constant regions; also called 5G12
B2 was tested, and the EC50 [1] was 3.66 nM and 2.2 nM and 1.64 nM and the binding result [2] was “no binding (tested: 100 nM)”.

B3: PR301285 (antibody, human IgG1, kappa, V domains shown)
VH: QVQLQESGPGLVKPSETLSLTCTVSGGSMISYYWSWLRQPPGKGLEWIGYIYYSGNTNYNPSLKSRITIAVDTSKNQFSLKLNSVTAADTAVYYCARERELHPYYFDYWGQGTLVTVSS
VL: DIQLTQSPSFLSASVGDRVTITCRASQGIDNYLAWYQQKPGKAPKVLIYAASTLQSGVPSRFSGSGSGTEFTLTISSLQPEDFATYYCQQLNSYPLTFGGGTKVEIKR
B3 was tested, and the EC50 [1] was 0.553 nM, the “Maximum (MFI)” value [1] was 20300 MFI and the binding result [2] was “no binding (tested: 100 nM)”.

B4: PR301289 (antibody, human IgG1, kappa, V domains shown)
VH: QVQLVQSGAEVKKPGASVKVSCRASGYTFTSYDINWVRQATGQGLEWMGWMNPHSGDTGYAQNFQGRVTMTWNTSISTAYMELSSLRSEDTAVYYCARRRVGVYYYGMDVWGQGTTVTVSS
VL: ENVLTQSPGTLSLSPGERATLSCRASQSVSSSYFGWYQQKPGQAPRLLIYGASSRATGIPDRFSGSGSGTDFTLTISRLEPEDFAVYYCQQYGSSPITFGQGTRLEIKR
notes: Parent of the PTM variants PR301289-1 and -2
B4 was tested, and the EC50 [1] was 1.04 nM, the “Maximum (MFI)” value [1] was 29200 MFI and the binding result [2] was “no binding (tested: 100 nM)”.
